In article PMC6544321:

Assays:
[1] = target: yeast single-chain H2A.Z-H2B (yeast); test: ITC; 0.2 M NaCl (Table 1); Swc2-Z or Chz1-M injected into single-chain histone dimers; otherwise as the ITC methods (25°C, 20 mM MES pH 6.0)
[2] = target: yeast single-chain H2A.Z-H2B (yeast); test: ITC; MicroCal VP-ITC, 25°C, 20 mM MES (pH 6.0), 0.5 M NaCl; chaperone (50 or 150 μM) injected into histones (5 μM scZB or 15 μM scAB and mutants) in the cell; one-site fit
[3] = target: single chain H2A-H2B with H2A P50A/N91G (yeast); test: as above
[4] = target: single-chain H2A.Z-H2B with H2A.Z A57P (yeast); test: as above
[5] = target: single-chain H2A.Z-H2B with H2A.Z A57P/G98N (yeast); test: as above
[6] = target: single-chain H2A.Z-H2B with H2A.Z G98N (yeast); test: as above
[7] = target: single-chain H2A.Z-H2B with H2A.Z RA→GNV (yeast); test: as above
[8] = target: single-chain H2A.Z-H2B with H2B Y45A/M62A (yeast); test: as above

Row | Kd [1] [nM] | stoichiometry N [1] [sites] | Kd [2] [nM] | stoichiometry N [2] [sites] | Kd [3] [nM] | stoichiometry N [3] [sites] | Kd [4] [nM] | stoichiometry N [4] [sites] | Kd [5] [µM] | stoichiometry N [5] [sites] | Kd [6] [nM] | stoichiometry N [6] [sites] | Kd [7] [nM] | stoichiometry N [7] [sites] | Kd [8] [nM] | stoichiometry N [8] [sites] | Binder
1 | 20 | 1 | 1060 | 1 |  |  |  |  |  |  |  |  |  |  |  |  | middle region of Chz1 (Chz1 64-124) (domain or fragment) TVEDSESDMDDAKLDALMGNEGEEEEDDLAEIDTSNIITSGRRTRGKVIDYKKTAEELDKK
2 |  |  | 120 | 0.9 | 160 | 1.1 | 740 | 1 | 3.39 | 1.1 | 970 | 0.9 | 190 | 1 | 1120 | 0.8 | middle and C-terminal region of Chz1 (Chz1 64-153) (domain or fragment) TVEDSESDMDDAKLDALMGNEGEEEEDDLAEIDTSNIITSGRRTRGKVIDYKKTAEELDKKEPSTGSKDDVGYGEKEEDDEDEEDDDFKE
3 |  |  | 130 | 1 |  |  |  |  |  |  |  |  |  |  |  |  | full-length Chz1 (natural protein) MSDEAKEKRELESQKESSHNKSEKSVEPKPKRRRRRNYDDYDAEVAKEETKAKNGLTKSENNGTVEDSESDMDDAKLDALMGNEGEEEEDDLAEIDTSNIITSGRRTRGKVIDYKKTAEELDKKEPSTGSKDDVGYGEKEEDDEDEEDDDFKE
